According to paper PMC6975927:
One block for each molecule: values may come before it.

How the values were obtained:
[1] = target: SCF^βTRCP (CUL1-RBX1 with full-length βTRCP2 (FBW11)-SKP1 complex) (human) (UniProt Q13616)
[2] = target: SCF^FBW7 (CUL1-RBX1 with FBW7(263-C-terminus)-SKP1 complex) (human) (UniProt Q13616)

- KM of UBE2D3 in multi-turnover ubiquitylation of 32P-labeled β-Catenin peptide by SCF^βTRCP [1]: 0.488 µM
- KM of UBE2D3 in multi-turnover ubiquitylation of 32P-labeled Cyclin E peptide by SCF^FBW7 [2]: 1.67 µM
Molecule: UBE2D3 (from UniProt P61077 1-147) (enzyme)

- KM of UBE2G1 in multi-turnover ubiquitylation of 32P-labeled mono-ubiquitylated Cyclin E peptide (Ub-Cyclin E) by SCF^FBW7 [2]: 1.3 µM
B1: UBE2G1 (enzyme)
chain: MTELQSALLLRRQLAELNKNPVEGFSAGLIDDNDLYRWEVLIIGPPDTLYEGGVFKAHLTFPKDYPLRPPKMKFITEIWHPNVDKNGDVCISILHEPGEDKYGYEKPEERWLPIHTVETIMISVISMLADPNGDSPANVDAAKEWREDRNGEFKRKVARCVRKSQETAFE
